Patent US20230383288, “SYSTEMS, METHODS, AND COMPOSITIONS FOR RNA-GUIDED RNA-TARGETING CRISPR EFFECTORS” (Massachusetts Institute of Technology, published 2023)

Target: T1, DiCas7-11 D429A/D654A (Desulfonema ishimotonii, D429A,D654A)
T1 chain: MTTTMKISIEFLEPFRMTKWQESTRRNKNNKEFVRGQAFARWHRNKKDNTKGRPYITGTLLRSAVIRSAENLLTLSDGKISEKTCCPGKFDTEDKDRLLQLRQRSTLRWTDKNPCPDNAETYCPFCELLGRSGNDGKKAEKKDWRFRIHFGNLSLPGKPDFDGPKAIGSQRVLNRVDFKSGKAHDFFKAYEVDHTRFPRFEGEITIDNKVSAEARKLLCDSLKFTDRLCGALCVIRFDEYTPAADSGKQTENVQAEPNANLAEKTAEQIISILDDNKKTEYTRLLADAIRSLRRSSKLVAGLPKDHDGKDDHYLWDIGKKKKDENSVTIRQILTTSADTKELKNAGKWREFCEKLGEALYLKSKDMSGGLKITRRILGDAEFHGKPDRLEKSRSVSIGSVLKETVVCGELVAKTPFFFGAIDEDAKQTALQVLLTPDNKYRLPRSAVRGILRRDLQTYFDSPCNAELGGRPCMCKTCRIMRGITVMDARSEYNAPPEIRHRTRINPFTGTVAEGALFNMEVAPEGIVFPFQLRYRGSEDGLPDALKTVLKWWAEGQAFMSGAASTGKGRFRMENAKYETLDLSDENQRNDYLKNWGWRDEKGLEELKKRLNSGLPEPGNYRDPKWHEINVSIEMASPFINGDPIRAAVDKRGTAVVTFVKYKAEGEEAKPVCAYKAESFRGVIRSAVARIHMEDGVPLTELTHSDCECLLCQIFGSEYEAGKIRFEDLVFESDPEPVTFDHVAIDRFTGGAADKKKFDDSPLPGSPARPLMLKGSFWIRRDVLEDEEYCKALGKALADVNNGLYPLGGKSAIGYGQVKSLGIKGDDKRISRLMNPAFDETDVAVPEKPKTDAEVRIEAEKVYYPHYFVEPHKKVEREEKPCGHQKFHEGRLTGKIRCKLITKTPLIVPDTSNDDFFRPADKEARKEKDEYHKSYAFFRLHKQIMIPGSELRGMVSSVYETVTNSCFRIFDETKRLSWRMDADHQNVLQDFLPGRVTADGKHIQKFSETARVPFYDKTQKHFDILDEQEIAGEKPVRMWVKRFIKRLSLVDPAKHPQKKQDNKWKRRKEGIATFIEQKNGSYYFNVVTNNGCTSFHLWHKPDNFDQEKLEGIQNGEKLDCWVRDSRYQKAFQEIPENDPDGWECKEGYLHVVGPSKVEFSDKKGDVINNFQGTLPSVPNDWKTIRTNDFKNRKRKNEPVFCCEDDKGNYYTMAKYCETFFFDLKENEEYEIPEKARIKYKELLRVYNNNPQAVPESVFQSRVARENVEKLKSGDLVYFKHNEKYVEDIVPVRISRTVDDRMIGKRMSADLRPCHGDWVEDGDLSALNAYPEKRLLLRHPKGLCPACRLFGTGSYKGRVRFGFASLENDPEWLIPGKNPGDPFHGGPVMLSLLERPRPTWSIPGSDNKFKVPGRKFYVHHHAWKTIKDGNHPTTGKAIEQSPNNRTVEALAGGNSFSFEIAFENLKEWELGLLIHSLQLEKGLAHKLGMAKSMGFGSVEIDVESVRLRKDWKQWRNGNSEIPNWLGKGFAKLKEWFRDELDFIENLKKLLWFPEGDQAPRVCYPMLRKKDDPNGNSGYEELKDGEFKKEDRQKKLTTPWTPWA
Experiment: structure; cryo-EM 2.45 A, PDB 7WAH; 20 mM Hepes pH 7.0, 150 mM NaCl, 2 mM MgCl2; target pairs with crRNA 1-23 except flipped 4 and 10
Conditions: tags: N-terminal MBP, C-terminal His6
Protocol: A Cas7-11-crRNA-target RNA complex was reconstituted by mixing the purified MBP-Cas7-11 protein, the 39-nucleotide crRNA, and the 25-nucleotide target RNA, at a molar ratio of 1:1.2:1.5. The complex was purified by size-exclusion chromatography on a Superose6 Increase 10/300 column (GE Healthcare), equilibrated with the buffer containing 20 mM Hepes-NaOH, pH 7.0, 150 mM NaCl, 2 mM MgCl₂, and 1 mM DTT. The peak fraction containing Cas7-11-:crRNA-target RNA complex was concentrated to 1.5 A260 units using an Amicon Ultra-4 filter (10 kDa molecular-weight cutoff; Millipore). The samples (3 μl) were then applied to freshly glow-discharged Au 300 mesh R1.2/1.3 grids (Quantifoil) in a Vitrobot Mark IV (FEI) at 4° C. with a waiting time of 10 sec and a blotting time of 4 sec under 100% humidity conditions. The grids were plunge-frozen into liquid ethane cooled at liquid nitrogen temperature.
A model was built using Nautilus and Buccaneer in CCP-EM package and manually built using COOT against the density map sharpened using DeepEMhancer. […] The curve representing model vs. full map was calculated using phenix.mtriage, based on the final model and the full, filtered, and sharpened map. The cryo-EM density maps were calculated with UCSF ChimeraX, and molecular graphics figures were prepared with CueMol (http://www.cuemol.org).

B1: crRNA for structural analysis ; target RNA for structural analysis (ssRNA ; ssRNA)
RNA 1: GGUGAUGUCACGGAACCUUUGUUGUCUUCGACAUGGGUAAU
RNA 2: GGAUUACCCAUGUCGAAGACAACAAAG
Question: Does B1 bind?
Answer: Result: binds
